According to paper PMC8211771:

Substrate: O=[N+]([O-])c1ccc(O[C@@H]2O[C@H](CO)[C@H](O)[C@H](O)[C@H]2O)cc1
Assay: purified protein
Conditions: 100 mM phosphate-based buffer, 5 μM protein
[1] = pH 8.0, 20 °C (room temperature), Figure 6 legend gives 0.047 mM (±0.005), pH 8.0
[2] = pH 8.0, 20 °C (room temperature), Figure 6 legend gives 0.07 mM (±0.012), pH 8.0
[3] = pH 8.4, 20 °C (room temperature), Figure 6 legend gives 0.052 mM (±0.007), pH 8.4
[4] = pH 8.0, 20 °C (room temperature), Figure 6 legend gives 0.13 mM (±0.010), pH 8.0

B1: BT2857C (Bacteroides thetaiotaomicron VPI-5482) (protein)
chain: ELDKTKFREMYLQNDSRVDSYDGKMEYVWNGRISKDGDSGGVGLHTGTGTKDGPAVFTFDLGVLAKLSRFALWAIQDEKHFYNDMSPRRYEVWGCATEPNPDGSWDQWVKLLDMENVKPSGSPIGILTEDDIEAAKIGDQANVPLDMPRVRYIRIKCLKNWSNNYNICFTELTFWGND
B1 showed a kcat [1] of 0.011 s⁻¹ and a kcat/Km [1] of 234 M⁻¹ s⁻¹.

B2: BT2857N (Bacteroides thetaiotaomicron VPI-5482) (protein)
chain: CAEDMVKPIENDKDAPGTVQDVKTESLPGAVKFTYTLPSDPDLLYVLAKYTNKTGKVMEFRSSFYTNSVTVEGFGDTDTYKVELYTVDRSENRSQPQIVEVVPLTPPILSCYESLSMVSDFGGMTFEMDNKFKSDLAIYVCTPDELGDMVLAETFYSAREEIVYSVRGYDAVPRRFGIFLQDKYGNETDTLFTELTPIYERELDKT
B2 was tested, and the kcat [2] was 0.046 s⁻¹ and the kcat/Km [2] was 657 M⁻¹ s⁻¹.

B3: BT3158 (Bacteroides thetaiotaomicron VPI-5482) (protein)
chain: CEDVETHKPYGDGSGHAPGTVQVTSYEQIPGGVTLKFIAPTDEDLLYIKIKYTLDNGKEMEARASLYTDETTIEGFGNTNPKKLVISAVNKMEKEGEAIITEIVPGKPAYLTAIEEIEVNPTFGGIYIHTTNGGRNYLIFDVSTKDSKGNWNIEHTEYTSVKNIGFTLRGFSAEPHDFKVRVRDLYDNQSEEYLTTLTPLYEEKLDLTKFKTFYLANDIKMDNAGHTLESLFNGDHGLNSWNYAHGYDFNPSEFPVWFTFDMGQTAQLSRFTSWQRSMGGSYYYRAGAIKEWEVWGRSDLPSSDGSWDGWTKLADCESIKPSGWPTGSNSEEDITYASKGEEFEFLADIPPVRYIRFKILSTHDGAGLVVMQQLWFYGTPIQ
Protein B3 has a kcat [3] of 1.21 s⁻¹ and a kcat/Km [3] of 23300 M⁻¹ s⁻¹.

B4: BT2857 (Bacteroides thetaiotaomicron VPI-5482) (protein)
chain: CAEDMVKPIENDKDAPGTVQDVKTESLPGAVKFTYTLPSDPDLLYVLAKYTNKTGKVMEFRSSFYTNSVTVEGFGDTDTYKVELYTVDRSENRSQPQIVEVVPLTPPILSCYESLSMVSDFGGMTFEMDNKFKSDLAIYVCTPDELGDMVLAETFYSAREEIVYSVRGYDAVPRRFGIFLQDKYGNETDTLFTELTPIYERELDKTKFREMYLQNDSRVDSYDGKMEYVWNGRISKDGDSGGVGLHTGTGTKDGPAVFTFDLGVLAKLSRFALWAIQDEKHFYNDMSPRRYEVWGCATEPNPDGSWDQWVKLLDMENVKPSGSPIGILTEDDIEAAKIGDQANVPLDMPRVRYIRIKCLKNWSNNYNICFTELTFWGNDNEE
With B4 the kcat [4] was 0.046 s⁻¹ and the kcat/Km [4] was 354 M⁻¹ s⁻¹.
